Consider 41 molecules from paper PMC11417369, “DNA sequence and chromatin differentiate sequence-specific transcription factor binding in the human malaria parasite Plasmodium falciparum”.

For this series, the target named is T1, AP2-G D1 (Plasmodium falciparum, UniProt Q8I5I9 2123-2245).
T1 sequence: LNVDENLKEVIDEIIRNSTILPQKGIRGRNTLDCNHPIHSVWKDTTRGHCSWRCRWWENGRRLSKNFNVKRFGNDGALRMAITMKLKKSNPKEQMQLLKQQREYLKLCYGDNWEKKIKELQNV
The experiment in a line: gcPBM; about 25 ug protein; PBS, 1% milk, 0.2 mg/ml BSA, salmon testes DNA, 0.03% Triton X-100. Particulars: tags: N-terminal GST (pGEX-4T-1), kept; label: surface-attached array probe.

B1: XGTACX_negctrl_site513 (dsDNA)
DNA 1: GAAAAAAAAAAAAAAAGAAAATTCATATTTTTAATA
DNA 2: TATTAAAAATATGAATTTTCTTTTTTTTTTTTTTTC
Regarding B1, the binding signal was 9.66 ln median PBM intensity, better of two orientations.

B2: XGTACX_negctrl_site479 (dsDNA)
DNA 1: AATCAATTAATATTAGCATAAAATTTTATTATTTTG
DNA 2: CAAAATAATAAAATTTTATGCTAATATTAATTGATT
Turning to B2, the binding signal was 9.57 ln median PBM intensity, better of two orientations.

B3: XGTACX_negctrl_site418 (dsDNA)
DNA 1: TTTTTTTTTTTTTTTTCTTTTTTTTTTTTAAATAAG
DNA 2: CTTATTTAAAAAAAAAAAAGAAAAAAAAAAAAAAAA
Take B3: the binding signal is 9.64 ln median PBM intensity, better of two orientations.

B4: XGTACX_negctrl_site427 (dsDNA)
DNA 1: TTCTATATTTTAGCTGATAATATTATGAGCTTCACT
DNA 2: AGTGAAGCTCATAATATTATCAGCTAAAATATAGAA
In the case of B4, the binding signal was 9.67 ln median PBM intensity, better of two orientations.

B5: XGTACX_negctrl_site367 (dsDNA)
DNA 1: ATAAAATGATGTATCTGTGTATGTTTATTTTGTTTT
DNA 2: AAAACAAAATAAACATACACAGATACATCATTTTAT
With B5, the binding signal was 9.53 ln median PBM intensity, better of two orientations.

B6: XGTACX_negctrl_site587 (dsDNA)
DNA 1: TATGAAAAAAAAAAAAAAAAAAAAAAAAAAAAAAAA
DNA 2: TTTTTTTTTTTTTTTTTTTTTTTTTTTTTTTTCATA
Take B6: the binding signal is 9.69 ln median PBM intensity, better of two orientations.

B7: XGTACX_negctrl_site240 (dsDNA)
DNA 1: TTTTTTATAAAATTTTTTTTTTAAAATATTAAAACT
DNA 2: AGTTTTAATATTTTAAAAAAAAAATTTTATAAAAAA
Consider B7, for which the binding signal was 9.66 ln median PBM intensity, better of two orientations.

B8: XGTACX_negctrl_site67 (dsDNA)
DNA 1: AACAAATAAAGCTATGACATGTTAAAATTGTTTCAC
DNA 2: GTGAAACAATTTTAACATGTCATAGCTTTATTTGTT
In the case of B8, the binding signal is 9.59 ln median PBM intensity, better of two orientations.

B9: XGTACX_negctrl_site159 (dsDNA)
DNA 1: TACAAAAAGAATGAAAAATATATAATAAAAATAAAA
DNA 2: TTTTATTTTTATTATATATTTTTCATTCTTTTTGTA
Take B9: the binding signal was 9.63 ln median PBM intensity, better of two orientations.

B10: XGTACX_negctrl_site308 (dsDNA)
DNA 1: TACATAATTTAAAATTTTATAAGTTGTAATTCGTTT
DNA 2: AAACGAATTACAACTTATAAAATTTTAAATTATGTA
For the molecule B10, the binding signal was 9.65 ln median PBM intensity, better of two orientations.

B11: XGTACX_negctrl_site221 (dsDNA)
DNA 1: TATTTTATAAATACAAGTAAAATTAAATATATAATA
DNA 2: TATTATATATTTAATTTTACTTGTATTTATAAAATA
With B11, the binding signal is 9.64 ln median PBM intensity, better of two orientations.

B12: XGTACX_negctrl_site380 (dsDNA)
DNA 1: TTTTTTAAAAGATATATAATATGTATGAATATTCAA
DNA 2: TTGAATATTCATACATATTATATATCTTTTAAAAAA
In the case of B12, the binding signal was 9.71 ln median PBM intensity, better of two orientations.

B13: XGTACX_negctrl_site72 (dsDNA)
DNA 1: CTTTCAAAATTATTTATAGTATCTCATATTTTAGTA
DNA 2: TACTAAAATATGAGATACTATAAATAATTTTGAAAG
As to B13, the binding signal is 9.65 ln median PBM intensity, better of two orientations.

B14: XGTACX_negctrl_site60 (dsDNA)
DNA 1: TACAGTTTTTCTTTGAATTTATCAAGTTTTTTTCCC
DNA 2: GGGAAAAAAACTTGATAAATTCAAAGAAAAACTGTA
Take B14: the binding signal is 9.65 ln median PBM intensity, better of two orientations.

B15: XGTACX_negctrl_site542 (dsDNA)
DNA 1: TACATTTCATTGTAATCATAAAAAATAAAGAAAAAA
DNA 2: TTTTTTCTTTATTTTTTATGATTACAATGAAATGTA
As for B15, the binding signal was 9.7 ln median PBM intensity, better of two orientations.

B16: XGTACX_negctrl_site599 (dsDNA)
DNA 1: TTTTTGTAAACCTACTTCATAATTATTTATATCTAT
DNA 2: ATAGATATAAATAATTATGAAGTAGGTTTACAAAAA
For B16, the binding signal is 9.69 ln median PBM intensity, better of two orientations.

B17: XGTACX_negctrl_site143 (dsDNA)
DNA 1: TATTTCGTAATTTAATAATATACAAGAAATATATAT
DNA 2: ATATATATTTCTTGTATATTATTAAATTACGAAATA
For the molecule B17, the binding signal was 9.58 ln median PBM intensity, better of two orientations.

B18: XGTACX_negctrl_site85 (dsDNA)
DNA 1: TACATATTTTGTATATATTATTTATTTTATTAGTTT
DNA 2: AAACTAATAAAATAAATAATATATACAAAATATGTA
For B18, the binding signal is 9.55 ln median PBM intensity, better of two orientations.

B19: XGTACX_negctrl_site307 (dsDNA)
DNA 1: CTTTATCTTCTCACGAAGATTGAATAAGGTATTCTT
DNA 2: AAGAATACCTTATTCAATCTTCGTGAGAAGATAAAG
B19: the binding signal was 9.6 ln median PBM intensity, better of two orientations.

B20: XGTACX_negctrl_site318 (dsDNA)
DNA 1: GAAAAAAGGAAATAAAGAAAAAAAAAAATGAAATAT
DNA 2: ATATTTCATTTTTTTTTTTCTTTATTTCCTTTTTTC
For B20, the binding signal is 9.53 ln median PBM intensity, better of two orientations.

B21: XGTACX_negctrl_site87 (dsDNA)
DNA 1: GCATATTTTCCCTGTGAATAAAGTTTTTTTTTTTAT
DNA 2: ATAAAAAAAAAAACTTTATTCACAGGGAAAATATGC
For the molecule B21, the binding signal is 9.67 ln median PBM intensity, better of two orientations.

B22: XGTACX_negctrl_site539 (dsDNA)
DNA 1: TAAGGATAAATAAAATGAAATGAAATAAATAAATGA
DNA 2: TCATTTATTTATTTCATTTCATTTTATTTATCCTTA
Turning to B22, the binding signal is 9.56 ln median PBM intensity, better of two orientations.

B23: XGTACX_negctrl_site452 (dsDNA)
DNA 1: TATCTCTACAAAATTTTATTCATTATTCATGTTATA
DNA 2: TATAACATGAATAATGAATAAAATTTTGTAGAGATA
Consider B23, for which the binding signal was 9.53 ln median PBM intensity, better of two orientations.

B24: XGTACX_negctrl_site420 (dsDNA)
DNA 1: AAAAAATAGAATATAAAAATAAAGGAATTAAATTAA
DNA 2: TTAATTTAATTCCTTTATTTTTATATTCTATTTTTT
As to B24, the binding signal was 9.64 ln median PBM intensity, better of two orientations.

B25: XGTACX_negctrl_site612 (dsDNA)
DNA 1: TAAACATTTTTAATTTTGTAAAATTTTAAATAAAAA
DNA 2: TTTTTATTTAAAATTTTACAAAATTAAAAATGTTTA
In the case of B25, the binding signal was 9.56 ln median PBM intensity, better of two orientations.

B26: XGTACX_negctrl_site355 (dsDNA)
DNA 1: AAAGGGGAAAATATTATACATATAATAAATCCGTAT
DNA 2: ATACGGATTTATTATATGTATAATATTTTCCCCTTT
Regarding B26, the binding signal was 9.67 ln median PBM intensity, better of two orientations.

B27: XGTACX_negctrl_site47 (dsDNA)
DNA 1: ATATATATATAATTATATAAAATATATCATATGTTA
DNA 2: TAACATATGATATATTTTATATAATTATATATATAT
B27: the binding signal was 9.64 ln median PBM intensity, better of two orientations.

B28: XGTACX_negctrl_site298 (dsDNA)
DNA 1: AGTTTTTATTAAAACAAAATTTAATTATAACGTTGA
DNA 2: TCAACGTTATAATTAAATTTTGTTTTAATAAAAACT
On to B28, for which the binding signal was 9.58 ln median PBM intensity, better of two orientations.

B29: XGTACX_negctrl_site76 (dsDNA)
DNA 1: TTATTATTTATTTTTTATTATTATTATTTTTTTTTA
DNA 2: TAAAAAAAAATAATAATAATAAAAAATAAATAATAA
Regarding B29, the binding signal is 9.62 ln median PBM intensity, better of two orientations.

B30: XGTACX_negctrl_site373 (dsDNA)
DNA 1: ATTTATAATGATTTTTTTAGTAATCTTGTTATTTTT
DNA 2: AAAAATAACAAGATTACTAAAAAAATCATTATAAAT
As to B30, the binding signal is 9.69 ln median PBM intensity, better of two orientations.

B31: XGTACX_negctrl_site364 (dsDNA)
DNA 1: ATAAAATATTAGACATTTATTAATATTACACATATC
DNA 2: GATATGTGTAATATTAATAAATGTCTAATATTTTAT
With B31, the binding signal was 9.58 ln median PBM intensity, better of two orientations.

B32: XGTACX_negctrl_site400 (dsDNA)
DNA 1: AATAATGAAACAGGAAAAAAATATTGTTAAAATGTA
DNA 2: TACATTTTAACAATATTTTTTTCCTGTTTCATTATT
As for B32, the binding signal is 9.6 ln median PBM intensity, better of two orientations.

B33: XGTACX_negctrl_site118 (dsDNA)
DNA 1: AAGGTATACACTGCTTTATCAAGTTTAACTCTTTTT
DNA 2: AAAAAGAGTTAAACTTGATAAAGCAGTGTATACCTT
On to B33, for which the binding signal was 9.62 ln median PBM intensity, better of two orientations.

B34: XGTACX_negctrl_site314 (dsDNA)
DNA 1: TAATTTATAAGGTATAACAACAATTGCATCTATCAC
DNA 2: GTGATAGATGCAATTGTTGTTATACCTTATAAATTA
For B34, the binding signal is 9.69 ln median PBM intensity, better of two orientations.

B35: XGTACX_negctrl_site482 (dsDNA)
DNA 1: AGAAAAAACAAAAGAGAAATGAAAAAAAAAAAAAAA
DNA 2: TTTTTTTTTTTTTTTCATTTCTCTTTTGTTTTTTCT
With B35, the binding signal was 9.54 ln median PBM intensity, better of two orientations.

B36: XGTACX_negctrl_site1 (dsDNA)
DNA 1: TACAAACAAACACATAGCAATATATGTTATCAAAAA
DNA 2: TTTTTGATAACATATATTGCTATGTGTTTGTTTGTA
Turning to B36, the binding signal was 9.63 ln median PBM intensity, better of two orientations.

B37: XGTACX_negctrl_site357 (dsDNA)
DNA 1: ATAATTATATAAATATATATAATATATATATGAAAA
DNA 2: TTTTCATATATATATTATATATATTTATATAATTAT
B37: the binding signal was 9.61 ln median PBM intensity, better of two orientations.

B38: XGTACX_negctrl_site528 (dsDNA)
DNA 1: TTTTATCAAATATTTATTTTATACATAAATATTTAT
DNA 2: ATAAATATTTATGTATAAAATAAATATTTGATAAAA
In the case of B38, the binding signal is 9.58 ln median PBM intensity, better of two orientations.

B39: XGTACX_negctrl_site207 (dsDNA)
DNA 1: TTTTTATTTAATATTTTAAAAAAAAATCATTTTTAA
DNA 2: TTAAAAATGATTTTTTTTTAAAATATTAAATAAAAA
Regarding B39, the binding signal is 9.53 ln median PBM intensity, better of two orientations.

B40: XGTACX_negctrl_site148 (dsDNA)
DNA 1: TTAAAACATATTTTGAATTAATATATTTTAATATTA
DNA 2: TAATATTAAAATATATTAATTCAAAATATGTTTTAA
As for B40, the binding signal was 9.55 ln median PBM intensity, better of two orientations.

B41: XGTACX_negctrl_site278 (dsDNA)
DNA 1: TAATATTTCTTATTTTATATTTGTATATGAATGGAT
DNA 2: ATCCATTCATATACAAATATAAAATAAGAAATATTA
Turning to B41, the binding signal was 9.65 ln median PBM intensity, better of two orientations.
